“And” between values parts separate entries of the source, which are not always exact repeats. Identical values can stand only once.
T1: IL17RLP (Met-(-19) through Gly-270 of SEQ ID NO:2)-Fc fusion (human, UniProt Q9NRM6 18-289)
T1 construct: also called IL17RLP-Fc; soluble IL17RLP-Fc fusion protein; not shown: human Fc domain (heavy chain constant region of IgG1)
T1 sequence: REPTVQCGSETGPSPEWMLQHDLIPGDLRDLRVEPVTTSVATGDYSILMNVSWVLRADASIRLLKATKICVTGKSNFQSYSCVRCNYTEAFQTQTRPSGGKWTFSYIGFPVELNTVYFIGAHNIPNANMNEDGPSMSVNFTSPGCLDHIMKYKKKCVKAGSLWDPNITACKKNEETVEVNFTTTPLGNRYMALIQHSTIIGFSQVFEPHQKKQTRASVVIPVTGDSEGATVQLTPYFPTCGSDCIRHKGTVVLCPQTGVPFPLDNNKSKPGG


What was measured:
[1] = target: IL-17 receptor (receptor of the first BIACORE screen of Example 8; construct not stated) (Homo sapiens (Human)) (UniProt Q96F46); assay: BIACORE SPR; IL-17 at 25 ug/mL
[2] = target: T1, IL17RLP (Met-(-19) through Gly-270 of …); assay: BIACORE SPR (summary of Example 8)
Description: (§1) Binding Analyses—IL-20 protein was dialyzed against 10 mM sodium acetate buffer, pH 5 and a BIACORE™ flow cell was prepared for each receptor at densities of 7900 and 9600 RU for IL-17R and IL17RLP, respectively. Various concentrations of purified IL-20 and IL-17 (R&D Systems, Minneapolis, Minn.) in 50 microliters herpes-buffered saline (HBS) buffer were examined for receptor binding at a flow rate of 15 microliters per minute. After injection of sample the flow cell was equilibrated with HBS. Flow cells were regenerated using two 40 sec pulses of 10 mM HCl.

[3] = target: T2, IL-17 receptor (Met-1 through Asp-315)-Fc (human, UniProt Q96F46 33-315); assay: BIACORE SPR (summary of Example 8)
T2 construct: range 1-315; also called IL17R-Fc; huIL-17R extracellular domain-Fc; not shown: human Fc domain (heavy chain constant region of IgG1)
Description: as §1

[4] = target: IL-17 receptor (receptor of the first BIACORE screen of Example 8; construct not stated) (Homo sapiens (Human)) (UniProt Q96F46); assay: BIACORE SPR; conditioned CHO culture supernatant, IL-20 concentration estimated at ~25 ug/mL

Chain of Recombinant human IL-17 (R&D Systems) (Q16552 20-155 limits assumed): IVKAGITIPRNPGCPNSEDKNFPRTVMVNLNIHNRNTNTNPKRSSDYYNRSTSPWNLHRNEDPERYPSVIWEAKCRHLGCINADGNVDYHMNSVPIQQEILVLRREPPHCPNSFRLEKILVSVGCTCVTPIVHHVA
T2 sequence (Q96F46 33-315 limits assumed): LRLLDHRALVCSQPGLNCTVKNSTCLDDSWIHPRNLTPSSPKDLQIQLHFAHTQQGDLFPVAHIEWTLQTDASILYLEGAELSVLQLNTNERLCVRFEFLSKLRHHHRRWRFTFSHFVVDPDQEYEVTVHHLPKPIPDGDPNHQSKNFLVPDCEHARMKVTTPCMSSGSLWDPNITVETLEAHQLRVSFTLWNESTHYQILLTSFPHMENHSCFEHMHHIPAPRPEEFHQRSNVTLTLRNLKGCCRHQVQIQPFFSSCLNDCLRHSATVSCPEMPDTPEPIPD

Row | SPR binding response (RU) [1] [RU] | binding result [2] | binding result [3] | SPR binding response (RU) [4] | Molecule
1 | 60 |  |  |  | Recombinant human IL-17 (R&D Systems) (from UniProt Q16552 20-155) (ligand)
2 |  | binds | binds | 115 RU and 65 RU | recombinant human IL-20 expressed in CHO cells (purified protein or conditioned culture supernatant) (ligand, The complete ORF was expressed in CHO cells and the protein was secreted; The preparation is heterogeneous; Residues 23-180 is the longest species observed; GenBank AF212311 is printed; also called hIL-20; huIL-20) RSPKSKRKGQGRPGPLAPGPHQVPLDLVSRMKPYARMEEYERNIEEMVAQLRNSSELAQRKCEVNLQLWMSNKRSLSPWGYSINHDPSRIPVDLPEARCLCLGCVNPFTMQEDRSMVSVPVFSQVPVRRRLCPPPPRTGPCRQRAVMETIAVGCTCIF

Reference: patent US20070269439A1 (published 2007)
